# Measured values published in patent publication US8962819B2, “Anti-C5 alpha antibodies” (Adienne S.A., priority 2002, dated 2015).
# Entries after “also recorded” stand apart in the source; their conditions may differ.
# B1: TS-A12/22: anti-C5 scFv obtained from TS-A12 by VL chain shuffling; VH3/V-48 and Vλ3/V2-14; amino acid sequence SEQ ID NO:6 (protein, listed as Homo sapiens)
# scFv: DIRMTQSPDSLAVSLGERATINCKSSQSVLYSSNNKNYLAWYQQKPGQPPKLLIYWASTRESGVPDRFSGSGSGTDFTLTISSLQAEDVAVYYCQQYYSTPQLTFGGRTKVDIKSGGSTITSYNVYYTKLSSSGTQVQLQQSEGGVVQPGRSLRLSCAASGFTFSSYGMNWVRQAPGKGLEWVSYISSSSSTIYYADSVKGRFTISRDNSKNTLYLQMNSLRAEDTAVYYCARGPGMDVWGQGTTVTVSS
# Key:
# factor C5 = target: T1, factor C5 (Homo sapiens, UniProt P01031); assay: Surface plasmon resonance (BIACORE 2000) on C5 immobilized on chip; type: binding; settings: TS-A12/22 versus TS-A12 after VL chain shuffling
# T1 construct: C5 alpha and beta subunits were obtained by incubating 50 μg of C5; purchased Quidel
# Description: The binding affinity of the Tsa-12 antibody, purified by means of FPLC on Superdex 75 (Pharmacia), for factor C5 was measured by means of BIACORE™ 2000 (a system that generates unique data on the interactions between proteins and other molecules). The microchip (CM5, Biacore) was prepared by direct conjugation of the C5 antigen with amines (20 μg/ml in 10 mM Sodium Acetate pH 4.5). The final level of immobilisation turned out to be approximately 1000 RU (Resonance Units). Association and dissociation of antibody molecules from the bio-chip were measured using an optical detection system (Surface Plasmon Resonance). The analysis was carried out at 25° C., at a flow of 15 μl/min, using 4 different scFv concentrations in the range comprised between 100-300 nM, in PBS, 0.005% P20 (Biacore). The binding curves were interpolated 1:1 according to the model of Langmuir, using the dedicated software termed BIAevaluation (version 3.5) with correction for the mass transfer. In order to increase the affinity, the TS-A12 antibody was subjected to substitution (“shuffling”) of the VL light chains. For this purpose the phagemid DNA was cut with BssHII and SaII to excise the VL region. This region was substituted with all the repertoire of VL chains of a preimmune library (Sblattero, D., and Bradbury A., 2000, Nat. Biotechnol. 18:75) that was prepared with same enzymes. […]
# C5 [1] = target: T2, C5 (Homo sapiens, UniProt P01031); assay: Hemolytic assay, classical pathway (EAC1-3b sheep erythrocytes); type: biochemical; settings: 600 ng scFv, increasing amounts of C5, FIG. 4A
# T2 construct: C5 alpha and beta subunits were obtained by incubating 50 μg of C5; purchased Quidel
# Description: (§1) Values from spectrophotometric reading performed at 412 nm to measure inhibition of lysis of sheep erythrocytes coated with EAC1-3b, through the classical complement activation pathway (A Panel); or of rabbit erythrocytes in order to measure the alternative pathway of complement activation (B Panel). Increasing amounts of C5 were mixed with 600 ng of the scFv antibody of the invention with an unrelated scFv, or with GVBS in which the scFv of the invention were solubilised, as described in example 9. After incubation with serum lacking in C5, obtained from a patient with selective deficiency of this complement component, the percentage of hemolysis was measured compared to the 100% value obtained by lysing erythrocytes in an equal volume of distilled H2O and a blank obtained by resuspending eythrocytes in GBVS. Having assessed the characteristics of the inhibition of the classical activation pathway of factor C5 by the TS-A12/22 antibody, it was then verified whether there was inhibition also of the alternative pathway of C5 activation, and at which level. […] After incubation for 30 minutes at 37° C., the percentage of erythrocyte lysis was measured by comparison to a 100% value obtained by lysing erythrocytes with an equal volume of distilled of H2O and to a blank consisting of erythrocytes re-suspended in GBVS. […]
# C5 [2] = target: T2, C5; assay: Hemolytic assay, alternative pathway (rabbit erythrocytes); type: biochemical; settings: 600 ng scFv, increasing amounts of C5, FIG. 4B
# Description: as §1
# rat joint = assay: Rat model of antigen-induced (BSA) arthritis, intra-articular scFv; type: in vivo
# Description: Polymorphonuclear Leukocytes (PMN), isolated from intra-articular wash out of rats with arthritis induced by instillation of BSA (mBSA), were incubated with antibody TS-A12/22 or with an unrelated antibody, as described in example 10.
# Saline solution: control without induced arthritis; mBSA: BSA-induced arthritis, untreated; unrelated: BSA-induced arthritis, treated with unrelated scFv antibody; Ts-a12/22: BSA-induced arthritis, treated with the antibody of the invention.
# Histological sections of joints from rats treated with intra-articular injection of saline (A), BSA (B), BSA with TS-A12/22 (C) and BSA with the unrelated antibody (D) were analysed by immunofluorescence for the presence of complement components C3 and C9, as described in example 10.
# In order to test the effect of the TS-A12/22 antibody in vivo, the influx of PMN was measured in the rat joint injected with BSA, BSA and TS-A12/22 or BSA and unrelated antibody. […] Moreover the deposition of the C3 and C9 complement components was checked on a histological section of the joint of the back paw of treated rats, by immunofluorescence with specific antisera and fluorescein-conjugated secondary antibody (FIG. 7). […] It was thus confirmed that the TS-A12/22 antibody inhibits the complement cascade at a step intermediate between C3 and C9 and therefore at the level of the conversion of C5 to C5a+C5b.
# T2 sequence (P01031 678-1676 limits assumed): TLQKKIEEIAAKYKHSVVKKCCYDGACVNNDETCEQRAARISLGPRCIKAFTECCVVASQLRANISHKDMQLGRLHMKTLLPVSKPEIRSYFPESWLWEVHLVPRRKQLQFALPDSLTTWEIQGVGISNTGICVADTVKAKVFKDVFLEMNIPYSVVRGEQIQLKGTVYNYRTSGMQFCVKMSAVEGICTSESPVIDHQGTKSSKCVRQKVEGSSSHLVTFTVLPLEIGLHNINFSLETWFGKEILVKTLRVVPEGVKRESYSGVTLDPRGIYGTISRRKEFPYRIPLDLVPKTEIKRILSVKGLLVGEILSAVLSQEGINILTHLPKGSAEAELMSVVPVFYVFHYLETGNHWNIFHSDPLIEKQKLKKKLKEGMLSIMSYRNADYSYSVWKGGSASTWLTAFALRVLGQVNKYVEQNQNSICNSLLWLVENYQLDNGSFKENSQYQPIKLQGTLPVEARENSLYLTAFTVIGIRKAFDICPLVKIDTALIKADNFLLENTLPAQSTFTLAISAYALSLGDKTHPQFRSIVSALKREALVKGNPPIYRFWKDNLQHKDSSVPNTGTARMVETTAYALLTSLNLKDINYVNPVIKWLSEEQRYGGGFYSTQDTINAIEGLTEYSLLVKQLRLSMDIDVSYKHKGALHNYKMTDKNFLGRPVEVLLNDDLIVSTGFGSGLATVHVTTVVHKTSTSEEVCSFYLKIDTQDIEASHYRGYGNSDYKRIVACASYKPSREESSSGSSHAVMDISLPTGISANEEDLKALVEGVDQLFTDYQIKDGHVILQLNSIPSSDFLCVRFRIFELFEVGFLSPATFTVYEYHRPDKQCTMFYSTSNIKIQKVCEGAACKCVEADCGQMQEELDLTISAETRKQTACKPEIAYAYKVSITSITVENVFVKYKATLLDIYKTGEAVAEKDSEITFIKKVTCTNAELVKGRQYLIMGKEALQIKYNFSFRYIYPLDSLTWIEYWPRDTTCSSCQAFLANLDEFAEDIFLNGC
# T2 sequence (P01031 19-673 partner limits assumed): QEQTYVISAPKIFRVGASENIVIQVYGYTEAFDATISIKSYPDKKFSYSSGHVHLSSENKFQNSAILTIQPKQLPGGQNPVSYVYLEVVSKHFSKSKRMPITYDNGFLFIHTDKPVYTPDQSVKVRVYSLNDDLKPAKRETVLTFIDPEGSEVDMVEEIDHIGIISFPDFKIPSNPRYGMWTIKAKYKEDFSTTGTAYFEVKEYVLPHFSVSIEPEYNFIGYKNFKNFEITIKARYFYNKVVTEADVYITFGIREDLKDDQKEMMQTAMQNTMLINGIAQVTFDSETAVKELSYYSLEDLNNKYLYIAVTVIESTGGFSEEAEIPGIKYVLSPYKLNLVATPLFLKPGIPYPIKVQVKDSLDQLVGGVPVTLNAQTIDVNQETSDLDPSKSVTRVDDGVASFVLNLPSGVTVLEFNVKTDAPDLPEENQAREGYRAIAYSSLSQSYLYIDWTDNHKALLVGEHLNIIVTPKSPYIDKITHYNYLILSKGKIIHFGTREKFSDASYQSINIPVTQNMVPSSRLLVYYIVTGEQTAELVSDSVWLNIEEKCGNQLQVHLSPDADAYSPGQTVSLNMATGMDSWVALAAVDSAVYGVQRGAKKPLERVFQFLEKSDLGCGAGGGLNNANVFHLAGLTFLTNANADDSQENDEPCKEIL
# T1 sequence (P01031 678-1676 limits assumed): as the sequence (P01031 678-1676 limits assumed) above
# T1 sequence (P01031 19-673 partner limits assumed): as the sequence (P01031 19-673 partner limits assumed) above
molecule,measurement,setting,value
B1,increment of molar affinity,factor C5,approximately one order of magnitude
same,inhibition of erythrocyte lysis through the classical pathway,C5 [1],inhibits
same,inhibition of lysis of rabbit erythrocytes through the alternative pathway,C5 [2],inhibits
same,deposition of C3 in the joint (immunofluorescence),rat joint; FIG. 7,remained unchanged; also recorded: does not affect
same,deposition of C9 in the joint (immunofluorescence),rat joint; FIG. 7,strongly inhibited; also recorded: significantly reduces
same,number of PMN in the joint wash out liquid,"rat joint; versus BSA or BSA and unrelated antibody, FIG. 6",significantly reduced; also recorded: drastically reduced
